Assay [1] deals with T1, Human TROP2 Protein, His Tag (Acro Biosystems) (human, UniProt P09758 27-274).
T1 construct: not shown: His tag
T1 sequence (looked up): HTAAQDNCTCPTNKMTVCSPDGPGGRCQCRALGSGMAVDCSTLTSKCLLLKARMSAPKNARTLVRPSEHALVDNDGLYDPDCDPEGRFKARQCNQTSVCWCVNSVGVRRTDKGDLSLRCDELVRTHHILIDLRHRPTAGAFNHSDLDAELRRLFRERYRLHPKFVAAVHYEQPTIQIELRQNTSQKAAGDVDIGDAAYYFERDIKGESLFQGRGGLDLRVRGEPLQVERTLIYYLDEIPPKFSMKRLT
The assay is described as follows: BLI (Octet). On the technique in general: BLI is a label-free optical method that tracks binding on a fibre tip over time.

Assay [2] has as its target T2, Human TROP2 Protein, His Tag (Acro Biosystems) (human, UniProt P09758 27-274).
T2 construct: Soluble analyte of the Octet assay; also called TACSTD2; not shown: His tag
T2 sequence (looked up): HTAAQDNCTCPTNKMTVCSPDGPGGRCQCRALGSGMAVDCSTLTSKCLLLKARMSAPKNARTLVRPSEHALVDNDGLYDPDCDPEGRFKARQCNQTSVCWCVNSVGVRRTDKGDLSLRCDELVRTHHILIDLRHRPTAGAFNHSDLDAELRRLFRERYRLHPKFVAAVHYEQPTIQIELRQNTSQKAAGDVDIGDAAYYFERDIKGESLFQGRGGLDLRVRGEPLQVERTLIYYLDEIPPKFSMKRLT
Description: BLI (Octet) [1/2].

B1: MYT12295 (antibody, V domains shown)
VH: QVQLQQSGSELKKPGASVKVSCKASGYTFTNHGMNWVKQAPGQGLKWMGWINTYTGEPTHTDDFKGRFAFSLDTSVSTAYLQISSLKADDTAVYFCARGGFGSSYWYFDVWGQGSLVTVSS
VL: DIQLTQSPSSLSASVGDRVSITCKASQDVSIAVAWYQQKPGKAPKLLIYSASYRYTGVPDRFSGSGSGTDFTLTISSLQPEDFAVYYCQQHYITPLTFGAGTKVEIK
notes: sacituzumab VH 32, 60 -> H
As for B1, in assay [1], the binding result was “binds”.

B2: MYT13246 (antibody, V domains shown)
VH: QVQLQQSGSELKKPGASVKVSCKASGYTFTNYGMNWVKQAPGQGLKWMGWINTYTGEPTYTDDFHGRFAFSLDTSVSTAYLQISSLKADDTAVYFCARGGFGSSYWYFDVWGQGSLVTVSS
VL: DIQLTQSPSSLSASVGDRVSITCKASQDVSIAVAWYQQKPGKAPKLLIYSHSYRYTGVPDRFSGSGSGTDFTLTISSLQPEDFAVYYCHQHYITPLTFGAGTKVEIK
notes: Sacituzumab HC-LC pairing variant; IgG
For the molecule B2, in assay [2], the binding result is listed as “binds”.

B3: MYT13247 (antibody, V domains shown)
VH: QVQLQQSGSELKKPGASVKVSCKASGYTFTNYGMNWVKQAPGQGLKWMGWINTYTGEPTYTDDFKHRFAFSLDTSVSTAYLQISSLKADDTAVYFCARGGFGSSYWYFDVWGQGSLVTVSS
VL: DIQLTQSPSSLSASVGDRVSITCKASQDVSIAVAWYQQKPGKAPKLLIYSHSYRYTGVPDRFSGSGSGTDFTLTISSLQPEDFAVYYCHQHYITPLTFGAGTKVEIK
notes: as for B2
For the molecule B3, in assay [2], the binding result is reported as “binds”.

B4: MYT13228 (antibody, V domains shown)
VH: QVQLQQSGSELKKPGASVKVSCKASGYTFTNYGMNWVKQAPGQGLKWMGWINTYTGEPTYTDHFKGRFAFSLDTSVSTAYLQISSLKADDTAVYFCARGGFGSSYWYFDVWGQGSLVTVSS
VL: DIQLTQSPSSLSASVGDRVSITCKASQDVSIAVAWYQQKPGKAPKLLIYSASYRYTGVPDRFSGSGSGTDFTLTISSLQPEDFAVYYCQQHYHTPLTFGAGTKVEIK
notes: as for B2
Turning to B4, the binding result in assay [2] is given as “binds”.

B5: MYT13245 (antibody, V domains shown)
VH: QVQLQQSGSELKKPGASVKVSCKASGYTFTNYGMNWVKQAPGQGLKWMGWINTYTGEPTYTDDHKGRFAFSLDTSVSTAYLQISSLKADDTAVYFCARGGFGSSYWYFDVWGQGSLVTVSS
VL: DIQLTQSPSSLSASVGDRVSITCKASQDVSIAVAWYQQKPGKAPKLLIYSHSYRYTGVPDRFSGSGSGTDFTLTISSLQPEDFAVYYCHQHYITPLTFGAGTKVEIK
notes: as for B2
Consider B5, for which the binding result in assay [2] is given as “binds”.

B6: MYT13225 (antibody, V domains shown)
VH: QVQLQQSGSELKKPGASVKVSCKASGYTFTNYHMNWVKQAPGQGLKWMGWINTYTGEPTYTDDFKGRFAFSLDTSVSTAYLQISSLKADDTAVYFCARGGFGSSYWYFDVWGQGSLVTVSS
VL: DIQLTQSPSSLSASVGDRVSITCKASQDVSIAVAWYQQKPGKAPKLLIYSASYRYTGVPDRFSGSGSGTDFTLTISSLQPEDFAVYYCQQHYHTPLTFGAGTKVEIK
notes: as for B2
For the molecule B6, the binding result in assay [2] is on record as “binds”.

B7: MYT13240 (antibody, V domains shown)
VH: QVQLQQSGSELKKPGASVKVSCKASGYTFTNHGMNWVKQAPGQGLKWMGWINTYTGEPTYTDDFKGRFAFSLDTSVSTAYLQISSLKADDTAVYFCARGGFGSSYWYFDVWGQGSLVTVSS
VL: DIQLTQSPSSLSASVGDRVSITCKASQDVSIAVAWYQQKPGKAPKLLIYSHSYRYTGVPDRFSGSGSGTDFTLTISSLQPEDFAVYYCHQHYITPLTFGAGTKVEIK
notes: as for B2
Regarding B7, the binding result in assay [2] is recorded as “binds”.

B8: MYT13236 (antibody, V domains shown)
VH: QVQLQQSGSELKKPGASVKVSCKASGYTFTNYGMNWVKQAPGQGLKWMGWINTYTGEPTYTDHFKGRFAFSLDTSVSTAYLQISSLKADDTAVYFCARGGFGSSYWYFDVWGQGSLVTVSS
VL: DIQLTQSPSSLSASVGDRVSITCKASQDVSIAVAWYQQKPGKAPKLLIYSHHYRYTGVPDRFSGSGSGTDFTLTISSLQPEDFAVYYCQQHYITPLTFGAGTKVEIK
notes: as for B2
For the molecule B8, the binding result in assay [2] is given as “binds”.

B9: MYT12297 (antibody, V domains shown)
VH: QVQLQQSGSELKKPGASVKVSCKASGYTFTNHGMNWVKQAPGQGLKWMGWINTYTGEPTYTDHFKGRFAFSLDTSVSTAYLQISSLKADDTAVYFCARGGFGSSYWYFDVWGQGSLVTVSS
VL: DIQLTQSPSSLSASVGDRVSITCKASQDVSIAVAWYQQKPGKAPKLLIYSASYRYTGVPDRFSGSGSGTDFTLTISSLQPEDFAVYYCQQHYITPLTFGAGTKVEIK
notes: sacituzumab VH 32, 63 -> H
In the case of B9, in assay [1], the binding result is reported as “binds”.

B10: MYT13227 (antibody, V domains shown)
VH: QVQLQQSGSELKKPGASVKVSCKASGYTFTNYGMNWVKQAPGQGLKWMGWINTYTGEPTYTHDFKGRFAFSLDTSVSTAYLQISSLKADDTAVYFCARGGFGSSYWYFDVWGQGSLVTVSS
VL: DIQLTQSPSSLSASVGDRVSITCKASQDVSIAVAWYQQKPGKAPKLLIYSASYRYTGVPDRFSGSGSGTDFTLTISSLQPEDFAVYYCQQHYHTPLTFGAGTKVEIK
notes: as for B2
As to B10, in assay [2], the binding result is reported as “binds”.

B11: MYT13226 (antibody, V domains shown)
VH: QVQLQQSGSELKKPGASVKVSCKASGYTFTNYGMNWVKQAPGQGLKWMGWINTYTGEPTHTDDFKGRFAFSLDTSVSTAYLQISSLKADDTAVYFCARGGFGSSYWYFDVWGQGSLVTVSS
VL: DIQLTQSPSSLSASVGDRVSITCKASQDVSIAVAWYQQKPGKAPKLLIYSASYRYTGVPDRFSGSGSGTDFTLTISSLQPEDFAVYYCQQHYHTPLTFGAGTKVEIK
notes: as for B2
Regarding B11, in assay [2], the binding result is recorded as “binds”.

B12: MYT13235 (antibody, V domains shown)
VH: QVQLQQSGSELKKPGASVKVSCKASGYTFTNYGMNWVKQAPGQGLKWMGWINTYTGEPTYTHDFKGRFAFSLDTSVSTAYLQISSLKADDTAVYFCARGGFGSSYWYFDVWGQGSLVTVSS
VL: DIQLTQSPSSLSASVGDRVSITCKASQDVSIAVAWYQQKPGKAPKLLIYSHHYRYTGVPDRFSGSGSGTDFTLTISSLQPEDFAVYYCQQHYITPLTFGAGTKVEIK
notes: as for B2
On to B12, for which, in assay [2], the binding result was “binds”.

B13: MYT13230 (antibody, V domains shown)
VH: QVQLQQSGSELKKPGASVKVSCKASGYTFTNYGMNWVKQAPGQGLKWMGWINTYTGEPTYTDDFHGRFAFSLDTSVSTAYLQISSLKADDTAVYFCARGGFGSSYWYFDVWGQGSLVTVSS
VL: DIQLTQSPSSLSASVGDRVSITCKASQDVSIAVAWYQQKPGKAPKLLIYSASYRYTGVPDRFSGSGSGTDFTLTISSLQPEDFAVYYCQQHYHTPLTFGAGTKVEIK
notes: as for B2
Turning to B13, the binding result in assay [2] is “binds”.

B14: MYT13248 (antibody, V domains shown)
VH: QVQLQQSGSELKKPGASVKVSCKASGYTFTNHGMNWVKQAPGQGLKWMGWINTYTGEPTYTDDFKGRFAFSLDTSVSTAYLQISSLKADDTAVYFCARGGFGSSYWYFDVWGQGSLVTVSS
VL: DIQLTQSPSSLSASVGDRVSITCKASQDVSIAVAWYQQKPGKAPKLLIYSAHYRYTGVPDRFSGSGSGTDFTLTISSLQPEDFAVYYCQQHYHTPLTFGAGTKVEIK
notes: as for B2
As to B14, the binding result in assay [2] was “binds”.

B15: MYT13242 (antibody, V domains shown)
VH: QVQLQQSGSELKKPGASVKVSCKASGYTFTNYGMNWVKQAPGQGLKWMGWINTYTGEPTHTDDFKGRFAFSLDTSVSTAYLQISSLKADDTAVYFCARGGFGSSYWYFDVWGQGSLVTVSS
VL: DIQLTQSPSSLSASVGDRVSITCKASQDVSIAVAWYQQKPGKAPKLLIYSHSYRYTGVPDRFSGSGSGTDFTLTISSLQPEDFAVYYCHQHYITPLTFGAGTKVEIK
notes: as for B2
For B15, the binding result in assay [2] is reported as “binds”.

B16: MYT13243 (antibody, V domains shown)
VH: QVQLQQSGSELKKPGASVKVSCKASGYTFTNYGMNWVKQAPGQGLKWMGWINTYTGEPTYTHDFKGRFAFSLDTSVSTAYLQISSLKADDTAVYFCARGGFGSSYWYFDVWGQGSLVTVSS
VL: DIQLTQSPSSLSASVGDRVSITCKASQDVSIAVAWYQQKPGKAPKLLIYSHSYRYTGVPDRFSGSGSGTDFTLTISSLQPEDFAVYYCHQHYITPLTFGAGTKVEIK
notes: as for B2
Consider B16, for which the binding result in assay [2] is reported as “binds”.

B17: MYT13231 (antibody, V domains shown)
VH: QVQLQQSGSELKKPGASVKVSCKASGYTFTNYGMNWVKQAPGQGLKWMGWINTYTGEPTYTDDFKHRFAFSLDTSVSTAYLQISSLKADDTAVYFCARGGFGSSYWYFDVWGQGSLVTVSS
VL: DIQLTQSPSSLSASVGDRVSITCKASQDVSIAVAWYQQKPGKAPKLLIYSASYRYTGVPDRFSGSGSGTDFTLTISSLQPEDFAVYYCQQHYHTPLTFGAGTKVEIK
notes: as for B2
As for B17, the binding result in assay [2] is reported as “binds”.

B18: MYT13229 (antibody, V domains shown)
VH: QVQLQQSGSELKKPGASVKVSCKASGYTFTNYGMNWVKQAPGQGLKWMGWINTYTGEPTYTDDHKGRFAFSLDTSVSTAYLQISSLKADDTAVYFCARGGFGSSYWYFDVWGQGSLVTVSS
VL: DIQLTQSPSSLSASVGDRVSITCKASQDVSIAVAWYQQKPGKAPKLLIYSASYRYTGVPDRFSGSGSGTDFTLTISSLQPEDFAVYYCQQHYHTPLTFGAGTKVEIK
notes: as for B2
As for B18, in assay [2], the binding result is reported as “binds”.

B19: MYT13244 (antibody, V domains shown)
VH: QVQLQQSGSELKKPGASVKVSCKASGYTFTNYGMNWVKQAPGQGLKWMGWINTYTGEPTYTDHFKGRFAFSLDTSVSTAYLQISSLKADDTAVYFCARGGFGSSYWYFDVWGQGSLVTVSS
VL: DIQLTQSPSSLSASVGDRVSITCKASQDVSIAVAWYQQKPGKAPKLLIYSHSYRYTGVPDRFSGSGSGTDFTLTISSLQPEDFAVYYCHQHYITPLTFGAGTKVEIK
notes: as for B2
As for B19, in assay [2], the binding result is recorded as “binds”.

B20: MYT13234 (antibody, V domains shown)
VH: QVQLQQSGSELKKPGASVKVSCKASGYTFTNYGMNWVKQAPGQGLKWMGWINTYTGEPTHTDDFKGRFAFSLDTSVSTAYLQISSLKADDTAVYFCARGGFGSSYWYFDVWGQGSLVTVSS
VL: DIQLTQSPSSLSASVGDRVSITCKASQDVSIAVAWYQQKPGKAPKLLIYSHHYRYTGVPDRFSGSGSGTDFTLTISSLQPEDFAVYYCQQHYITPLTFGAGTKVEIK
notes: as for B2
In the case of B20, the binding result in assay [2] is “binds”.

(Values after patent US20260274985A1 (MYTHIC THERAPEUTICS, published 2026).)
